# Laboratory results taken from paper PMC2386126, “The Mycobacterium tuberculosis Rv2540c DNA sequence encodes a bifunctional chorismate synthase” (BMC Biochemistry, 2008).
# B1: chorismate synthase from M. tuberculosis (enzyme)
# chain: MLRWITAGESHGRALVAVVEGMVAGVHVTSADIADQLARRRLGYGRGARMTFERDAVTVLSGIRHGSTLGGPIAIEIGNTEWPKWETVMAADPVDPAELADVARNAPLTRPRPGHADYAGMLKYGFDDARPVLERASARETAARVAAGTVARAFLRQALGVEVLSHVISIGASAPYEGPPPRAEDLPAIDASPVRAYDKAAEADMIAQIEAAKKDGDTLGGVVEAVALGLPVGLGSFTSGDHRLDSQLAAAVMGIQAIKGVEIGDGFQTARRRGSRAHDEMYPGPDGVVRSTNRAGGLEGGMTNGQPLRVRAAMKPISTVPRALATVDLATGDEAVAIHQRSDVCAVPAAGVVVETMVALVLARAALEKFGGDSLAETQRNIAAYQRSVADREAPAARVSG
# notes: also called MtCS; CS
# Biological target: the molecule itself
# Experiment: SEC
protein,measurement,value
B1,stoichiometry N,2
